The assay addresses histone deacetylase 1 (HDAC1), endogenous mouse (mouse (endogenous in C3H10T1/2 and STO)) (UniProt O09106).
UniProt O09106, sequence (O09106 whole entry): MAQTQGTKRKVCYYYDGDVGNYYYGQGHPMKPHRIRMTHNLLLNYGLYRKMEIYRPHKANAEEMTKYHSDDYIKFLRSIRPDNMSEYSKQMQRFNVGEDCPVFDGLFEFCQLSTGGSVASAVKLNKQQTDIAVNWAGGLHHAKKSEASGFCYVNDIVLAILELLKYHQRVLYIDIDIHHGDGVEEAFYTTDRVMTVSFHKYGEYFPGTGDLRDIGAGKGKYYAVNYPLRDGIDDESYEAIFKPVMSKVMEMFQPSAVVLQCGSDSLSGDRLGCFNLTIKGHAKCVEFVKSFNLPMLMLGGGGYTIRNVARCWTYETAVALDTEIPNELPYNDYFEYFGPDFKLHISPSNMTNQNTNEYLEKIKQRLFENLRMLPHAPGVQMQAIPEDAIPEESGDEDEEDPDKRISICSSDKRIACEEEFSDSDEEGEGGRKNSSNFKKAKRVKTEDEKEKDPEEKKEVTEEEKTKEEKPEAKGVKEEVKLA

V5-tagged SS18-SSX1 fusion protein displayed a fold increase in AXIN2 message (Q-PCR) after treatment with the HDAC inhibitor TSA in C3H10T1/2^SS18-SSX1-V5 cells, compared to a 6 fold increase in C3H10T1/2^pLIVc of 3 fold.

These data come from PMC4764983.
